Results taken from US20210063414A1, “METHODS FOR PREVENTING AND/OR TREATING BONE LOSS CONDITIONS BY MODULATING IRISIN” (Dana-Farber Cancer Institute, Inc., priority 2018, published 2021).

How the values were obtained:
[1] = molecular target: T1, MLO-Y4 cell surface proteins (Mus musculus, UniProt P35762); test: Crosslinking/co-immunoprecipitation/mass spectrometry (TMT quantitative proteomics) to identify irisin receptors; assay type: binding; conditions: TMT ratio, Cd81 CD81 antigen
T1 construct: endogenous in cells; host or cells: MLO-Y4
T1 sequence (P35762 1-236): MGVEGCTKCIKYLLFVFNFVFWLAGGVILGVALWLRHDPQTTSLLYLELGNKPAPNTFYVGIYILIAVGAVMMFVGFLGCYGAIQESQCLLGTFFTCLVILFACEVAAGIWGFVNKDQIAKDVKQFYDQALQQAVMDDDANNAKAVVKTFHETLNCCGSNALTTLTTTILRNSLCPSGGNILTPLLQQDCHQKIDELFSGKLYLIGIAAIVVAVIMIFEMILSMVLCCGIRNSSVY
Outline: (§1)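 Relative protein abundance came from 6-plex TMT MS3 quantitation on an Orbitrap Fusion Lumos, after in-gel trypsin digestion of Coomassie-stained SDS-PAGE lanes. Input was a Ni-NTA pulldown (250 mM imidazole elution) of lysates from murine MLO-Y4 cells. These cells were treated on ice with His-tagged irisin or adipsin (10 nM, 20 min) in serum-free medium, then crosslinked with 1.5 mM DTSSP for 30 min.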

[2] = molecular target: T2, MLO-Y4 cell surface proteins (Mus musculus, UniProt P52825); test: as above; assay type: binding; conditions: co-precipitated protein Cpt2 (CPT2_MOUSE)
T2 construct: endogenous in cells; host or cells: MLO-Y4
T2 sequence (P52825 26-658): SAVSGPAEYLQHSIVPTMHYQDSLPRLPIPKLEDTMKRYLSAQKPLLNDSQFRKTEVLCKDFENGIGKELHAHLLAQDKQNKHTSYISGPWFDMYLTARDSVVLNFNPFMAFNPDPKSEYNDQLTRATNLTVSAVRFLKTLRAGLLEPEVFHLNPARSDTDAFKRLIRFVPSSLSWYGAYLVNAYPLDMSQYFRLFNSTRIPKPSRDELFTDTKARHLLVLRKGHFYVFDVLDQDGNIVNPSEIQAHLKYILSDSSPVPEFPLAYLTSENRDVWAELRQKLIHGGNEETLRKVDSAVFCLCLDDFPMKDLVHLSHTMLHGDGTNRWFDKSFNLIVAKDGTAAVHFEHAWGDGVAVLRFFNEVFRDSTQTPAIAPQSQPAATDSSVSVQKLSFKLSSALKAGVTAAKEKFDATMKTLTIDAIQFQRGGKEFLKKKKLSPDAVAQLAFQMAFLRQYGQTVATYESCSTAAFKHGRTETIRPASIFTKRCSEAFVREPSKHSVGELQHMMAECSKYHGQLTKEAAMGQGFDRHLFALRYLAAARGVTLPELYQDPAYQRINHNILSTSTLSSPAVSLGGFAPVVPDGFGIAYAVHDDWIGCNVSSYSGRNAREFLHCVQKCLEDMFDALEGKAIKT
Outline: as §1

B1: irisin: secreted cleaved form of FNDC5; recombinant human/mouse irisin with C-terminal his tag produced in HEK293 cells (protein)
chain: DSPSAPVNVTVRHLKANSAVVSWDVLEDEVVIGFAISQQKKDVRMLRFIQEVNTTTRSCALWDLEEDTEYIVHVQAISIQGQSPASEPVLFKTPREAEKMASKNKDEVTMKE
modifications: left off: small tags and cut ends
notes: secreted cleaved form of FNDC5; recombinant human/mouse irisin with C-terminal his tag produced in HEK293 cells
For B1, the irsin/adipsin [1] was 4.05, the TMT signal-to-noise ratio [2] was 96.8301 and the “irisin/adipsin TMT signal-to-noise ratio” value [2] was 0.545.
